US20110159022A1, “Immunogenic Peptides Derived from the Midkine Protein, as an Anticancer Vaccine” (priority 2008, published 2011)
Numbering of substitutions follows the chain as printed.

How the values were obtained:
[1] = biological target: HLA-DR3 (DRB1*0301) (Homo sapiens, UniProt P01903+P01911, A100K/A102G/A103R/A169T/F55Y/I96L/K41T/L162R/M171V/P40S/Q125H/Q178H/Q39Y/R42S/S66N/T106N/T262R/W38E/Y61H); experiment: HLA II/peptide competition binding assay, DR3; conditions: ratio of IC50 of competitor peptide to IC50 of reference peptide; mean of at least two independent experiments; less than 100 = active
[2] = biological target: HLA-DR15 (DRB1*1501) (Homo sapiens, UniProt P01903+P01911); experiment: HLA II/peptide competition binding assay, DR15; conditions: ratio of IC50 of competitor peptide to IC50 of reference peptide; mean of at least two independent experiments; less than 100 = active
[3] = biological target: HLA-DR7 (DRB1*0701) (Homo sapiens, UniProt P01903+P01911, A100R/A102G/A103Q/D57E/D86V/E43K/F76Y/K127E/L162R/M171V/P40G/Q125H/Q99D/R33Q/R42Y/R54Q/S133A/S66F/T210M/V115G/Y107V/Y59L/Y89S); experiment: HLA II/peptide competition binding assay, DR7; conditions: ratio of IC50 of competitor peptide to IC50 of reference peptide; mean of at least two independent experiments; less than 100 = active
[4] = biological target: HLA-DR1 (DRB1*0101) (Homo sapiens, UniProt P01903+P01911, A100R/D57E/F55L/F60I/F76Y/I96L/L162R/M171V/P40L/Q125E/R42F/V115G/Y59C); format: binding; conditions: ratio of IC50 of competitor peptide to IC50 of reference peptide; mean of at least two independent experiments; less than 100 = active
[5] = biological target: T1, HLA-DP401 (DPB1*0401) (Homo sapiens, UniProt P04440+P20036); format: binding; conditions: ratio of IC50 of competitor peptide to IC50 of reference peptide; mean of at least two independent experiments; less than 100 = active
T1 sequence (P04440 30-258): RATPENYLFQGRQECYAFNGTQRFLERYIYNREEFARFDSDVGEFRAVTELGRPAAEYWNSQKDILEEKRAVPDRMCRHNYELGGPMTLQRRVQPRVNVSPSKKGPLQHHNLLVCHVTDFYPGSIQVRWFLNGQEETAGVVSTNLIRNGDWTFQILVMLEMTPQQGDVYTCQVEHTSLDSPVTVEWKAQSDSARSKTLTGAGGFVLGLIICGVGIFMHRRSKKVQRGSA
T1 sequence (P20036 29-260): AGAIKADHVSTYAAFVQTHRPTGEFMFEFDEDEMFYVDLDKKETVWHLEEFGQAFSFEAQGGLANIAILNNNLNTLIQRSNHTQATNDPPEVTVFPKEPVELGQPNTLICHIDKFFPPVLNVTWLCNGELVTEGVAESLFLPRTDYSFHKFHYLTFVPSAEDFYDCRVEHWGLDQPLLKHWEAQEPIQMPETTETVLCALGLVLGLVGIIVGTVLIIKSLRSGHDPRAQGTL

[6] = biological target: T2, HLA-DP402 (DPB1*0402) (Homo sapiens, UniProt P04440+P20036, A65V/A84D/A85E/L207M); format: binding; conditions: ratio of IC50 of competitor peptide to IC50 of reference peptide; mean of at least two independent experiments; less than 100 = active
T2 sequence (P04440 30-258 A65V/A84D/A85E): T1 sequence (P04440 30-258) with A36V, A55D, A56E
T2 sequence (P20036 29-260): T1 sequence (P20036 29-260)

[7] = biological target: HLA-DRB3 (DRB3*0101) (Homo sapiens, UniProt P01903+P79483); experiment: HLA II/peptide competition binding assay, DRB3; conditions: ratio of IC50 of competitor peptide to IC50 of reference peptide; mean of at least two independent experiments; less than 100 = active
[8] = system: 12 predominant HLA II molecules; experiment: HLA II/peptide binding assays, count over the panel; design: species or system human; conditions: relative activity of less than 100 characterizes the active peptides
Description: The assays for binding to HLA II molecules are competition binding assays with immunoenzymatic visualization, as described in U.S. Pat. No. 6,649,166 and PCT international application WO 03/040299, respectively, for the HLA-DR and HLA-DP4 molecules. The implementation of these assays for measuring the binding activity of peptides derived from various antigens is illustrated in U.S. Pat. No. 6,649,166 and PCT international applications WO 02/090382, WO 03/040299 and WO 2004/014936.
The sensitivity of each test is reflected by the IC50 values observed with the nonbiotinylated peptides which correspond to the tracers. […] The results are expressed in the form of relative activity (ratio of the IC50 of the competitor peptide to that of the reference peptide (nonbiotinylated peptide which corresponds to the tracer)). A relative activity of less than 100 characterizes the active peptides.

[9] = biological target: HLA-DRB4 (DRB4*0101) (Homo sapiens, UniProt P01903+P13762, G164S); experiment: HLA II/peptide competition binding assay, DRB4; conditions: ratio of IC50 of competitor peptide to IC50 of reference peptide; mean of at least two independent experiments; less than 100 = active
[10] = biological target: HLA-DR11 (DRB1*1101) (Homo sapiens, UniProt P01903+P01911, A100R/A169T/A87E/I96F/K41T/L162R/M171V/P40S/Q125H/Q178H/Q39Y/Q99D/R42S/S66Y/T262R/V115G/W38E); format: binding; conditions: ratio of IC50 of competitor peptide to IC50 of reference peptide; mean of at least two independent experiments; less than 100 = active
[11] = biological target: HLA-DR4 (DRB1*0401) (Homo sapiens, UniProt P01903+P01911, A100K/A169T/F76Y/I96L/K127E/L162R/M171V/N62H/P40V/Q125Y/R42H/S133A/S149N/S66Y/V115G/V209L/W38E); experiment: HLA II/peptide competition binding assay, DR4; conditions: ratio of IC50 of competitor peptide to IC50 of reference peptide; mean of at least two independent experiments; less than 100 = active
[12] = biological target: HLA-DR13 (DRB1*1301) (Homo sapiens, UniProt P01903+P01911, A100E/A169T/K41T/L162R/M171V/P40S/Q125H/Q178H/Q39Y/Q99D/R42S/S66N/T262R/W38E/Y61H); experiment: HLA II/peptide competition binding assay, DR13; conditions: ratio of IC50 of competitor peptide to IC50 of reference peptide; mean of at least two independent experiments; less than 100 = active
[13] = biological target: HLA-DRB5 (DRB5*0101) (Homo sapiens, UniProt P01903+Q30154); experiment: HLA II/peptide competition binding assay, DRB5; conditions: ratio of IC50 of competitor peptide to IC50 of reference peptide; mean of at least two independent experiments; less than 100 = active

Substance | Relative binding activity, DR3 [1] | Relative binding activity, DR15 [2] | Relative binding activity, DR7 [3] | Relative binding activity, DR1 [4] | Relative binding activity, DP401 [5] | Relative binding activity, DP402 [6] | Relative binding activity, DRB3 [7] | Total (number of the 12 predominant HLA II molecules bound) [8] | Relative binding activity, DRB4 [9] | Relative binding activity, DR11 [10] | Relative binding activity, DR4 [11] | Relative binding activity, DR13 [12] | Relative binding activity, DRB5 [13]
G T K V R Q G T L K K A R Y N (GTKVRQGTLKKARYN) [MDK 99-113] | >419 | >529 | >2 479 | 3 000 | >879 | >976 | >485 | 1 | >28 868 | >1 086 | >1 812 | – | –
G T L K K A R Y N A Q C Q E T (GTLKKARYNAQCQET) [MDK 105-119] | >419 | 225 | >2 479 | – | >879 | >976 | >485 | 1 | >28 868 | 1 008 | – | >2 537 | >2 100
K D K V K K G G P G S E C A E (KDKVKKGGPGSECAE) [MDK 25-39] | >419 | >529 | >2 479 | 1 251 | >879 | >976 | >485 | 0 | >28 868 | >1 086 | >1 812 | >2 537 | >2 100
K E F G A D C K Y K F E N W G (KEFGADCKYKFENWG) [MDK 78-92] | – | 216 | >2 479 | 299 | – | – | – | – | >28 868 | – | – | >2 537 | –
Q T Q R I R C R V P C N W K K (QTQRIRCRVPCNWKK) [MDK 64-78] | >419 | >529 | 2 066 | 246 | >879 | >976 | >485 | 1 | 1 155 | – | – | >2 537 | –
T S A V A K K K D K V K K G G (TSAVAKKKDKVKKGG) [MDK 18-32] | >419 | >529 | >2 479 | >5 291 | >879 | >976 | >485 | 0 | >28 868 | >1 086 | >1 812 | 132 | >2 100
